The values below come from patent publication US20250154198A1, “PEPTIDE INHIBITORS OF INTERLEUKIN-23 RECEPTOR” (Zealand Pharma A/S, priority 2021, published 2025).

What is called Ki is a measure of affinity in units of concentration, obtained from inhibition or displacement.

Assay [1] has as its target T1, Nluc-IL23R fusion protein (human, UniProt Q5VWK5 22-629).
T1 construct: range 22-629; Stably expressed in HEK293 cells; also called hIL-23R; human IL-23R fused to a Nanoluc luciferase enzyme; not shown: Nanoluc luciferase (Promega N1371 plasmid) at the N-terminus
T1 sequence (looked up): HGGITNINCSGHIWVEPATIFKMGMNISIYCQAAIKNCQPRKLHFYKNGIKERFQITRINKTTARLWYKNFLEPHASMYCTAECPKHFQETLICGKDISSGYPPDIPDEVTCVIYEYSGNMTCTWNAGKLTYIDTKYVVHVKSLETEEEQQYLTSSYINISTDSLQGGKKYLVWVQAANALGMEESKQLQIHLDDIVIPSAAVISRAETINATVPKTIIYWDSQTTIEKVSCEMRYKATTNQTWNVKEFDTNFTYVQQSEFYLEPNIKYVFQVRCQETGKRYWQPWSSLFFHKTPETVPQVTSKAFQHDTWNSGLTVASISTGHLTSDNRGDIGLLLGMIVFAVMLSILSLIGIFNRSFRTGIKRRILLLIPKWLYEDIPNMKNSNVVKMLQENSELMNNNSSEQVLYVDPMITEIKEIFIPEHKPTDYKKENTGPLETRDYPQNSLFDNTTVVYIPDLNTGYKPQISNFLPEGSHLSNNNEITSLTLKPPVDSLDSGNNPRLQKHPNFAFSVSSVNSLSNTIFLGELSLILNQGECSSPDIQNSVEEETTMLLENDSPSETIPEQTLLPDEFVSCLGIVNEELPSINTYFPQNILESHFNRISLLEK
The assay can be described thus: BRET displacement of TAMRA-labelled peptide, Nluc-IL23R membranes. (In general: Bioluminescence resonance energy transfer reports proximity on the nanometre scale.)

In assay [2] the target is T2, human IL-23R endogenously expressed on DB cells (CRL-2289) (human, UniProt Q5VWK5 24-629).
T2 sequence (looked up): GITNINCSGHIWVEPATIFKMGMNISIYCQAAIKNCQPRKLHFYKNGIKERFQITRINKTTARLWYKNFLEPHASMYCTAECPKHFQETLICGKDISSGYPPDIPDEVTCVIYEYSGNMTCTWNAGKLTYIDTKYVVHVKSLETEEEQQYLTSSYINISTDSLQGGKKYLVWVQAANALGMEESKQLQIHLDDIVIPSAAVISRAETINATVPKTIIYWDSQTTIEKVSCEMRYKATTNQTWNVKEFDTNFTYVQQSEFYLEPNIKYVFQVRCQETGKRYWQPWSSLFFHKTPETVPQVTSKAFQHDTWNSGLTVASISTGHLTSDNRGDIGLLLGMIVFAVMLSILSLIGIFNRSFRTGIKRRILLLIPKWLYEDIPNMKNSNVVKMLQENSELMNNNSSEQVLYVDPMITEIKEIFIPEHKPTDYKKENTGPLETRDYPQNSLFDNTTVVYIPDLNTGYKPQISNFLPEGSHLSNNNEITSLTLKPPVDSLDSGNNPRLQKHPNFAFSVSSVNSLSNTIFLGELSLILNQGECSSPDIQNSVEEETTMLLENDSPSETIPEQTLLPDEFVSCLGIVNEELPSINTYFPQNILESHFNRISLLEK
The assay can be described thus: cell-based or functional assay.

Assay [3] has as its target T1, Nluc-IL23R fusion protein. The assay is described as follows: BRET displacement of TAMRA-labelled peptide, Nluc-IL23R membranes. The source holds these as a separate data set.
Assay [4] deals with T2, human IL-23R endogenously expressed on …. The assay is described as follows: cell-based or functional assay. This is another data set of the same source.
Assay [5] has as its target T1, Nluc-IL23R fusion protein. The assay can be described thus: BRET displacement of TAMRA-labelled peptide, Nluc-IL23R membranes. The source holds these as a separate data set.
Description: (§1) The plate was sealed with light impermeable plate seals, and incubated on a orbital shaker 400 rpm for 2 hours at room temperature. To determine the BRET ratio, the plate seal was removed and 25 μL of the Nanoluc substrate (Promega N1572) diluted 1:500 was added to each well and incubated for 1-2 minutes on an orbital shaker at 400 rpm. […] The BRET ratio was calculated as the fluorescence from the TAMRA/nanoluc bioluminescence. The IC₅₀ for each compound was determined by computer-aided curve fitting using a 4-parameter logistic (4PL) non-linear model.
Assay [6] concerns the target T2, human IL-23R endogenously expressed on …. The assay can be described thus: cell-based or functional assay. The source holds these as a separate data set.
Assay [7] addresses T1, Nluc-IL23R fusion protein. The assay is described as follows: BRET displacement of TAMRA-labelled peptide, Nluc-IL23R membranes. This is another data set of the same source.
Description: as §1
Assay [8] has as its target T2, human IL-23R endogenously expressed on …. The assay is described as follows: cell-based or functional assay. The source holds these as a separate data set.
The target of assay [9] is T1, Nluc-IL23R fusion protein. The assay can be described thus: BRET displacement of TAMRA-labelled peptide, Nluc-IL23R membranes. The source holds these as a separate data set.
Description: as §1
Assay [10] deals with T2, human IL-23R endogenously expressed on …. The assay is described as follows: cell-based or functional assay. The source holds these as a separate data set.
Assay [11] shares this target. The assay can be described thus: cell-based or functional assay. This is another data set of the same source.
For assay [12] the target is unchanged. The assay can be described thus: cell-based or functional assay. The source holds these as a separate data set.
The target is the same in assay [13]. The assay is described as follows: cell-based or functional assay. This is another data set of the same source.
The target in assay [14] is T1, Nluc-IL23R fusion protein. The assay can be described thus: BRET displacement of TAMRA-labelled peptide, Nluc-IL23R membranes. The source holds these as a separate data set.
Description: as §1
For assay [15], the target named is T1, Nluc-IL23R fusion protein. The description is as above. This is another data set of the same source.
Description: as §1
The target of assay [16] is T1, Nluc-IL23R fusion protein. The description is as above. The source holds these as a separate data set.
Description: as §1

Like-named read-outs stand apart in the source and are kept apart here. *1 amine or outer side, *2 acyl side, *3 side chain or, on linkers, in order; H or OH if unused. Bridges are numbered along the chain shown (N, C = ends). [ ]: non-standard residue; d: D form. 1,3‑dibromopropan‑2‑one = linker (CAS 816-39-7) joining two Cys as 1,3-dithio-propan-2-one bridge -SCH2C(=O)CH2S-; 2Nal = N[C@@H](Cc1ccc2ccccc2c1)C(=O)O; CH2COCH2 = O=C(C[*:1])C[*:2]; 3Amb = NCc1cccc(C(=O)O)c1 Where only a bound is given, the exact number is not on record here.

B1: Compound 37 (peptide)
peptide: [3Amb]SCWQCW[2Nal]LER-NH2
modifications: lactam N-10; linker 3-6 via CH2COCH2
In the case of B1, the Ki was 9.86 nM in [1], 9.87 nM in assay [3] and 9.86 nM in assay [5]. Besides, the “IC50 (pSTAT3)” value in assay [2], in [4] and in assay [6] was 44.6 nM each time.

B2: Compound 18 (peptide)
peptide: Ac-KSCWQCW[2Nal]LER-NH2
modifications: lactam 1-10; linker 3-6 via CH2COCH2
For B2, the “IC50 (pSTAT3)” value in assay [2], in assay [4], in assay [8] and in assay [10] was 17.6 nM in each case. The inhibition constant (Ki) in assay [3], in [5], in assay [7] and in assay [9] was 2.85 nM in each case.

B3: Compound 4 (peptide)
peptide: H-DESCWQCWWLKR-NH2
modifications: lactam 2-11; linker 4-7 via 1,3‑dibromopropan‑2‑one
For B3, the “IC50 (pSTAT3)” value in assay [2] is 847 nM; in assay [11], above 1 µM; in assay [12], above 1 µM; in assay [13], above 1 µM. Besides, the Ki in assay [3], in assay [14], in assay [15] and in [16] was 143 nM each time.
